Experimental findings from US20200385710 are described below.

Data set [1] deals with Bxb1 integrase (Mycobacteriophage Bxb1?). The data set can be described thus: cell_activity. Conditions: 0.85% without integrase.
The test system of data set [2] is T1, Bxb1 integrase, codon-optimized with bipartite Xenopus NLS (Mycobacteriophage Bxb1?).
T1 sequence: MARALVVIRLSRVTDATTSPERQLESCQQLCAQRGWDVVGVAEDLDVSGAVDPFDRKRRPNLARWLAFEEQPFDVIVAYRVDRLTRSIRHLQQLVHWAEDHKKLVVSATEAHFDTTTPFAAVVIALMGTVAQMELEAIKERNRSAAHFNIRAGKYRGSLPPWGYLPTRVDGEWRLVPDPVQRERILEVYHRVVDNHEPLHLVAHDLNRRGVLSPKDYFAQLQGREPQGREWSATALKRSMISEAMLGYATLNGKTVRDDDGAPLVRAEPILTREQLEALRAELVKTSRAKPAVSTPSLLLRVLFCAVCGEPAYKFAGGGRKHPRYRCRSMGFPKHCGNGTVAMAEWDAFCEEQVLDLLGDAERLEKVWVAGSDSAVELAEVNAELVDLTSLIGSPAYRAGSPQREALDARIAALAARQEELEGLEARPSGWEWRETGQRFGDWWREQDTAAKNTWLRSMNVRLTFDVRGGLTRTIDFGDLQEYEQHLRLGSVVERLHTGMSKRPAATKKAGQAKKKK
Put plainly: cell_activity. Conditions: 1 mM VPA as printed, 27.6% without VPA.

Substance Bxb1 attB (donor plasmid with GFP) gave an activity (% GFP-positive cells) in data set [1] (attB donor partner of attP at H11 in HEK293) of 19.4. In data set [2] (attB donor partner, HEK293 H11), the activity (% integration) worked out at 45.2.
With “Bxb1 attP (landing pad at H11 or AAVS1 locus)”, the activity (% GFP-positive cells) in data set [1] (attP x attB integration at H11 in HEK293, AAVS1 locus 15.4% (0.74% without)) came to 19.4. Moreover, the activity (% integration) in data set [2] (HEK293 H11 attP, 43.5% at 700 nM VPA) is 45.2.
